# Source: the DeepSol protein solubility set
# Assay: soluble on expression in E. coli; label from the status in PepcDB or PDB records
row,Sequence,soluble on expression in E. coli
1,MGSDKIHHHHHHMTSQYKASRFATPRDMPEQTYRLSNVCLPAPLSMGELETFSAISRQVSPLRKRHTLFEQGEAFRSLYIVRCGSLKQVYRDITREEHVTQFYLPGEVVGLDALSSGFHPGATIALETTSVCEIGPESIEELAHGDRTERGVGGCFLRVMSRAMHQERMMVRLFLNRTSDVRLASFLLALSGRFRQQGYSPFCFRLSMSRSDIGNYLGLAVETVSRLLGRFQHLGLLTAKGREIRIDDLEALAALADGRSRHSIWDTADEAPERLASMSTH,not soluble
2,MPFSQIGINGIVNLKKMHVKNYRAPQVSVLNFLPPRHIVLGLENLDIGLGSEFTANAVPIVVEGSLVGQITGMTVALTTELLTDVTGKMNAVVRNCSALIGNSHIVLNPTGPMSIFVKTFEPMINDSVRQRIPEMFCSRLQNLIEKNISKLFEFITKIDLEDYFPKASNVEKDVMNM,not soluble
3,MKTVVIGAGLGGLLSAARLSKAGHEVEVFERLPITGGRFTNLSYKGFQLSSGAFHMLPNGPGGPLACFLKEVEASVNIVRSEMTTVRVPLKKGNPDYVKGFKDISFNDFPSLLSYKDRMKIALLIVSTRKNRPSGSSLQAWIKSQVSDEWLIKFADSFCGWALSLKSDEVPVEEVFEIIENMYRFGGTGIPEGGCKGIIDALETVISANGGKIHTGQEVSKILIENGKAAGIIADDRIHDADLVISNLGHAATAVLCSEALSKEADAAYFKMVGTLQPSAGIKICLAADEPLVGHTGVLLTPYTRRINGVNEVTQADPELAPPGKHLTMCHQYVAPENVKNLESEIEMGLEDLKEIFPGKRYEVLLIQSYHDEWPVNRAASGTDPGNETPFSGLYVVGDGAKGKGGIEVEGVALGVMSVMEKVLGLEHHHHHH,soluble
4,LQYQPNKLARALTSSGFDAIMVISTRSTKTTAGNPFFSEVLHAITAKAEEEGFDVILQTSHNPAEDLQKCESKIKQKMIKGIIMLSSPADESFFAQLDKYDIPVVVIGKVEGQYAHVYSVDTDNFGDSIALTDALIESGHQNIACLHAPLDVHVSVDRVNGYKQSLAAHNIAVRDEWIVDGGYTHETALKAARQLLSQSPLPEAVFATDSLKLMSIYRAAAEKNIAIPQQLAVVGYSNETLSFILTPAPGGIDVPTQELGQQSCELLFRLISGKPSPQNITVATHMTLK,soluble
5,MAEDEPDAKSPKTGGRAPPGGAEAGEPTTLLQRLRGTISKAVQNKVEGILQDVQKFSDNDKLYLYLQLPSGPTTGDKSSEPSTLSNEEYMYAYRWIRNHLEEHTDTCLPKQSVYDAYRKYCESLACCRPLSTANFGKIIREIFPDIKARRLGGRGQSKYCYSGIRRKTLVSMPPLPGLDLKGSESPEMGPEVTPAPRDELVEAACALTCDWAERILKRSFSSIVEVARFLLQQHLISARSAHAHVLKAMGLAEEDEHAPRERSSKPKNGLENPEGGAHKKPERLAQPPKDLEARTGAGPLARGERKKSVVESSAPGANNLQVNALVARLPLLLPRAPRSLIPPIPVSPPILAPRLSSGALKVATLPLSSRAGAPPAAVPIINMILPTVPALPGPGPGPGRAPPGGLTQPRGTENREVGIGGDQGPHDKGVKRTAEVPVSEASGQAPPAKAAKQDIEDTASDAKRKRGRPRKKSGGSGERNSTPLKSAAAMESAQSSRLPWETWGSGGEGNSAGGAERPGPMGEAEKGAVLAQGQGDGTVSKGGRGPGSQHTKEAEDKIPLVPSKVSVIKGSRSQKEAFPLAKGEVDTAPQGNKDLKEHVLQSSLSQEHKDPKATPP,soluble
6,MSERRDCIVCTSGTCGRSWVFFRSGSGRRCIRSIFRESEGRTFGSNRISGSADHWTAIVERRKSRERGSKMKKEMTNDMTVGSPTKLIIQFMIPMCLGNVFQQFYNIADS,not soluble
7,MRLNFAYPATGLQKSFEVDEEKKLRLFFEKRMSQEVAIDALGDEWKGYVVRIGGGNDKQGFPMKQGILTNGRVRLLLKKGQSCYRERKNGERKRKSVRGCIVDANMSALSLVIVKKGDGEIEGLTDSVLPRKLGPKRASKIRKLFNLTKHDDVTKYVITHDKTFPDGVTKTIAPKIQRLITPARIARKKYLLRQKRNQKIKMRDDAAAYHKLLAKYSKEEHDAKIARRRSSASHHSESEVKKTSKK,not soluble
8,METEVMKSFNNELSSLFDSKNMSKNKIQDITKAAIKAKSQYKHVVFSVEKLINKCKPDQRLNVLYVIDSIVRASKHQLKEKDTFGPRFMKQFDKFLMPLLKCGQKEKMRTVRTLNLWMSNKVFKESEIQPLREMCKASGLTIDFEEVELAVKGKQADMSIYSGVYKKKPKRSSSSSQPKSRTPTNPHPDDGLLGAGPSSALRSVPDIPNFVLSEDYFLGTISEREMLELVQKFGIDRSGVLSKDKNLLQRALQIFAGSLSQKVEEVLAENNRINGSSIQNVLTKDFEYSDDEEEKEKEPQPEKQKNLPHAQVLLLAQSLLTQPQILAKLAEVLIPQGNPFGLPFPGEHIVPTSSAALTLGAPPPNLMALQQSLPPGFPNQQLGLPNLSGLNQAQLMNVQNAQNMLQLQQRAAQLQALQGNPNAQRNLLMLGNPLLNPFALQHGVNPMLNDLQAAAAAQQQAMLNEAAQSPEKKILELSGGNSGINNSGDVERARLREKEKERESKERRRMGLPPVRIGFTIIASRTLWLKKIPTNIVENDLKQAVESCGEASRVKVIGNRACAYITMENRRSANDVVSKMREVSVAKKMVKVYWARSPGMDSDQFSDLWDSNRGVLEIPYEKLPLDLVALCEGAMLDIESLPIEKKLLYKETGETVISIPPPNIQPPVPHPPPMGFPFQHQLTQLPGQPRPAGLPPGVPPMFNLNAPPPPGIPGYPPAPPPPGVGPPPPQGIPPMGFDPNKPPPPMFQQGFNAGAPPPPFGRGAGPMSSFPPPPRGGMHHMPPPPSFRGGRGGHGGPPPPHFDRRGGGGPPFRPENGRGRLLDQSEMWNREQREMRGGGGAGRDGGREHRDYDRDRSQIDRRRQDDMGARRRSRWGDDDRRDDDRRDDRRDDRRESRRRSPRSPRSPDRRTRRSPSYEREEPPVKKTSVEEETVSSTTLDELKPSVEPTPVPAPIPAPAPELKAAEEPVKIVAEHHEDQTDEVPMDLE,not soluble
9,MGSDKIHHHHHHMSHNKFDIIPAASFSNIGLEMIPPFPGLSSWVQCLWVNNDLKNSSRHVEEKLYPDAGSSLTFEIRNTRINARYFHHTRVVTHRWDTSTRHISVRFRPGGAKALLGLDIDDSQNIEIDLFDTPVSQQLSLQPLMDMLPALSADQQVQAVQNWLLTLSYRAQEPSRKWSTLLAHASADLIPPQQLALQNGFSRRTLERQLRKYLGFTPNQLHGFAQIRAARQYLILTPDSLSDIALACGYFDQAHFTNAFREQTLETPLQYRQRKMSQISNR,not soluble
10,ARFYSDGLKLAGTLFVPDDYEPGQKRPAVLICHGRFAIKEWVPSRWTPHFLAAGYVCMVFDYRNLGESEGTPGRIIPDEEVRDARHALTYLQCQPEVDPARIGALGWGLGGGVAVSAAAHDARIKAVVCAIGVANGGRYGRVGMSDAAWAARQEQIAADRRERVLTGRSARLPRTEILGRPDAQRAERHERQNWIDSLVAAVGPERAADPAKLGIPDEITLESMEALYDFAPDAVVDRIAPRPLLIVHARDDHEFPFEHAADMYERAAQPKQLIAVEDAGHLDWIDPAHPSQQVYVPQVVAWMQAQL,not soluble
11,SSLLDGLASSPRAPLQSSKARMKKLPKKSQNEKYRLKYLRLRKAAKATVFENAAICDEIARLEEKFLKAKEERRYLLKKLLQLQALTEGEVQAAAPSHSSSLPLTYGVASSVGTIQGAGPISGPSTGAEEPFGKKTKKEKKEKGKENNKLEVLKKTCKKKKMAGGARKLVQPIALDPSGRPVFPIGLGGLTVYSLGEIITDRPGFHDESAIYPVGYCSTRIYASMKCPDQKCLYTCQIKDGGVQPQFEIVPEDDPQNAIVSSSADACHAELLRTISTTMGKLMPNLLPAGADFFGFSHPAIHNLIQSCPGARKCINYQWVKFDVCKPGDGQLPEGLPENDAAMSFEAFQRQIFDEDQNDPLLPGSLDLPELQPAAFVSSYQPMYLTHEPLVDTHLQHLKSPSQGSPIQSSD,soluble
12,MDVSDSIDWSKMTLQKISVRIEGHATSVSLEQPFLDILKTIARKKGQSLAFIITDIDSKRPQQVNLSSSLRIYALQSVLIQRL,not soluble
13,MEKEQLIEIANTIMPFGKYKGRRLIDLPEEYLLWFARKDEFPAGKLGELMQITLLIKNEGLTQLVQPLKRPL,soluble
14,MTITSFGPANRIARTAETHPLTWRLRDDGEPVWLDEYQTKDGYAAARKALTQQAPDDIVQSVKDSGLKGRGGAGFPTGVKWGLMPKDESMNIRYLLCNADEMEPNTWKDRMLMEQLPHLLIEGMLISARALKAYRGYIFLRGEYVTAAKHLNRAVAEAKAAGLLGKNILGTGFDFELFVHTGAGRYICGEETALINSLEGRRANPRSKPPFPAAVGVWGKPTCVNNVETLCNVPAIVNNGNDWYKSLAREGSEDHGTKLMGFSGKVKNPGLWELPFGVQARELFEDYAGGMRDGFTLKCWQPGGAGTGFLLPEHLDAQMYAGGIAKVGTRMGTGLAMAVDDSVNMVSLLRNMEEFFAQESCGFCTPCRDGLPWSVKILRAIENGHGQPGDIETLLGLVNFLGPGKTFCAHAPGAVEPLGSAIKYFRSEFEAGIAPASAAMLVPGKSPTVVGALEHHHHHH,not soluble
15,GMADPKELQDKFWKALKSDRTVMLGLDGVEDGHARPMTAQIEGDSGGPIWFFTSKDNALIAMLGQGRRVIGAFSSKGHDLFASISGSLREDTDPAVVDRLWNPYVAAWYEGGKDDPKLALLRLDADHAQIWLNGSSLLAGIKVLLGV,soluble
16,MNPLEAVEHQGGLQLSTPPYEIAVDQKCYWRNQPIGLTLQGHNESIWFKGFVIQPFKWNNDQLGERFGQLVRLDDNGSWQQQCFRYQVSATHSHDEKKKHIKMWWKVDDEVDTVQFVATVVKHQTQFWVKSVRSRPLPPCRLNRDGFPNYQAPVPQIPPQVKQFKMETFKVFDSIVRRRPFNH,not soluble
17,MVKATAIDMSLSDIISTNRKNKKVVKKPIKKSAGGIRKRGNASNVGTPRRQSGGTSRGGGRMGNTVRRSAGGSSNDNKQVRINISNLAETVISSDLQELFGAFNLHKVSVNFNENGGAAGTGDITLKKYDADRLIQKFAGVALDGKVMHFAVIESSNFARKPEIRGTPNRRQSSGKPINRKVANPPRRQNAAKPPVKKGKKPAREQKPPKTAEQLDAELDAYMSRSA,not soluble
18,MKIGIFDSGAGGMTVLKAIREAYPNVDVVYLGDTARVPYGIRSKETIVRYSKECANFLKDKGVDLLVVACNTASAYALEELKREFPFPVFGVIEPGVKEALRKSKTKRIGVIGTQATIKSGAYQEALKRAGAEVYSKACPLFVPLVEEGMIEGEIPKKVVEHYLKDFKGKVDTLILGCTHYPLLKREIQNFLEGVNVIDSSRATAKSLKDFVKNEGSGSLELYFTDRSQNLERLIKLILGEEVEPKITSEVFVL,soluble
19,MGSDKIHHHHHHSSDDKDEQPILVTNVVMPASGTVFKPGEKVTIMAKGFQDNDEIMFDIRWPLQDEVLHEGYAKGGRGVITEKTATSITFLAPGHWPASTTEILLRRSGQMMSLGKISVADGQAPKDFQLYGIINSRSNTHRPHAIEYINLEKPQTAEIVRLADNQDFSCVVNLPGSWSLSGVWTKDDRRTTGLYDLSMNYWEKPGADQLVTMGIATANSVFGVYQGGDRLFVKTVNVMPYTRMYVPEKPDYGFLLPEGMKAEALSRYPCIQMSDGNILCSADNGDGTFSPVVLNGQNIEEKSIYVGEPIEAVALIPFWIVKPVEGMGTAKYTRVGGYIVSKRNGATITEGDGTEFRLWNPTTKMLDEPFTTFPNAACLVATLVSDDFKKQELYVLFDGSRNGRLIYVYDLLKGSWESLYPGGGFPYSEIVLAR,not soluble
20,MGHHHHHHSHMAQLMEVLSVTPTQSPENNDLISYNSVWVACQQMPQIPRDNKAAALLMLTKNVDFVKDAHEEMEQAVEECDPYSGLLNDTEENNSDNHNHEDDVLGFPSNQDLYWSEDDQELIIPCLALVRASKACLKKIRMLVAENGKKDQVAQLDDIVDISDEISPSVDDLALSIYPPMCHLTVRINSAKLVSVLKKALEITKASHVTPQPEDSWIPLLINAIDHCMNRIKELTQSELEL,not soluble
